Laboratory results reported in US20110159022A1, “Immunogenic Peptides Derived from the Midkine Protein, as an Anticancer Vaccine” (priority 2008, published 2011).
Substitutions are numbered along the chain they refer to.

Experiments:
[1] = target: HLA-DRB5 (DRB5*0101) (Homo sapiens, UniProt P01903+Q30154); assay: HLA II/peptide competition binding assay, DRB5; settings: ratio of IC50 of competitor peptide to IC50 of reference peptide; mean of at least two independent experiments; less than 100 = active
[2] = target: HLA-DR4 (DRB1*0401) (Homo sapiens, UniProt P01903+P01911, A100K/A169T/F76Y/I96L/K127E/L162R/M171V/N62H/P40V/Q125Y/R42H/S133A/S149N/S66Y/V115G/V209L/W38E); assay: HLA II/peptide competition binding assay, DR4; settings: ratio of IC50 of competitor peptide to IC50 of reference peptide; mean of at least two independent experiments; less than 100 = active
[3] = target: HLA-DR1 (DRB1*0101) (Homo sapiens, UniProt P01903+P01911, A100R/D57E/F55L/F60I/F76Y/I96L/L162R/M171V/P40L/Q125E/R42F/V115G/Y59C); format: binding; settings: ratio of IC50 of competitor peptide to IC50 of reference peptide; mean of at least two independent experiments; less than 100 = active
[4] = test system: 12 predominant HLA II molecules; assay: HLA II/peptide binding assays, count over the panel; set-up: species or system human; settings: relative activity of less than 100 characterizes the active peptides
From the text: The assays for binding to HLA II molecules are competition binding assays with immunoenzymatic visualization, as described in U.S. Pat. No. 6,649,166 and PCT international application WO 03/040299, respectively, for the HLA-DR and HLA-DP4 molecules. The implementation of these assays for measuring the binding activity of peptides derived from various antigens is illustrated in U.S. Pat. No. 6,649,166 and PCT international applications WO 02/090382, WO 03/040299 and WO 2004/014936.
The sensitivity of each test is reflected by the IC50 values observed with the nonbiotinylated peptides which correspond to the tracers. […] The results are expressed in the form of relative activity (ratio of the IC50 of the competitor peptide to that of the reference peptide (nonbiotinylated peptide which corresponds to the tracer)). A relative activity of less than 100 characterizes the active peptides.

[5] = target: HLA-DRB4 (DRB4*0101) (Homo sapiens, UniProt P01903+P13762, G164S); assay: HLA II/peptide competition binding assay, DRB4; settings: ratio of IC50 of competitor peptide to IC50 of reference peptide; mean of at least two independent experiments; less than 100 = active
[6] = target: HLA-DR13 (DRB1*1301) (Homo sapiens, UniProt P01903+P01911, A100E/A169T/K41T/L162R/M171V/P40S/Q125H/Q178H/Q39Y/Q99D/R42S/S66N/T262R/W38E/Y61H); assay: HLA II/peptide competition binding assay, DR13; settings: ratio of IC50 of competitor peptide to IC50 of reference peptide; mean of at least two independent experiments; less than 100 = active
[7] = target: HLA-DR3 (DRB1*0301) (Homo sapiens, UniProt P01903+P01911, A100K/A102G/A103R/A169T/F55Y/I96L/K41T/L162R/M171V/P40S/Q125H/Q178H/Q39Y/R42S/S66N/T106N/T262R/W38E/Y61H); assay: HLA II/peptide competition binding assay, DR3; settings: ratio of IC50 of competitor peptide to IC50 of reference peptide; mean of at least two independent experiments; less than 100 = active
[8] = target: HLA-DR7 (DRB1*0701) (Homo sapiens, UniProt P01903+P01911, A100R/A102G/A103Q/D57E/D86V/E43K/F76Y/K127E/L162R/M171V/P40G/Q125H/Q99D/R33Q/R42Y/R54Q/S133A/S66F/T210M/V115G/Y107V/Y59L/Y89S); assay: HLA II/peptide competition binding assay, DR7; settings: ratio of IC50 of competitor peptide to IC50 of reference peptide; mean of at least two independent experiments; less than 100 = active
[9] = target: HLA-DRB3 (DRB3*0101) (Homo sapiens, UniProt P01903+P79483); assay: HLA II/peptide competition binding assay, DRB3; settings: ratio of IC50 of competitor peptide to IC50 of reference peptide; mean of at least two independent experiments; less than 100 = active
[10] = target: T1, HLA-DP401 (DPB1*0401) (Homo sapiens, UniProt P04440+P20036); format: binding; settings: ratio of IC50 of competitor peptide to IC50 of reference peptide; mean of at least two independent experiments; less than 100 = active
T1 sequence (P04440 30-258): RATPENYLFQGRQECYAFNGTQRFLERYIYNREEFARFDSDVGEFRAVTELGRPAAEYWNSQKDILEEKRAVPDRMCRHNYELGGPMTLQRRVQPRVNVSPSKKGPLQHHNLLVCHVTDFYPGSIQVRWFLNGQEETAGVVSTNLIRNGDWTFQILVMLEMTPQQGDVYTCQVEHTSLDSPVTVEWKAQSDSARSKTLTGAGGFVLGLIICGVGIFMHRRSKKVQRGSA
T1 sequence (P20036 29-260): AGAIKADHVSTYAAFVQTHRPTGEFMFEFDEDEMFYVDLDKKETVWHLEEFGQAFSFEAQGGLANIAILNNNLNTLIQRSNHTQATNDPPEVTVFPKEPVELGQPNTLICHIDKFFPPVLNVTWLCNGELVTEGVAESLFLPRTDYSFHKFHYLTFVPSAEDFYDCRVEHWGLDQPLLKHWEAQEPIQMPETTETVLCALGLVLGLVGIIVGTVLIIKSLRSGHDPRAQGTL

[11] = target: HLA-DR15 (DRB1*1501) (Homo sapiens, UniProt P01903+P01911); assay: HLA II/peptide competition binding assay, DR15; settings: ratio of IC50 of competitor peptide to IC50 of reference peptide; mean of at least two independent experiments; less than 100 = active
[12] = target: T2, HLA-DP402 (DPB1*0402) (Homo sapiens, UniProt P04440+P20036, A65V/A84D/A85E/L207M); format: binding; settings: ratio of IC50 of competitor peptide to IC50 of reference peptide; mean of at least two independent experiments; less than 100 = active
T2 sequence (P04440 30-258 A65V/A84D/A85E): T1 sequence (P04440 30-258) with A36V, A55D, A56E
T2 sequence (P20036 29-260): T1 sequence (P20036 29-260)

[13] = target: HLA-DR11 (DRB1*1101) (Homo sapiens, UniProt P01903+P01911, A100R/A169T/A87E/I96F/K41T/L162R/M171V/P40S/Q125H/Q178H/Q39Y/Q99D/R42S/S66Y/T262R/V115G/W38E); format: binding; settings: ratio of IC50 of competitor peptide to IC50 of reference peptide; mean of at least two independent experiments; less than 100 = active

Row | Substance | Relative binding activity, DRB5 [1] | Relative binding activity, DR4 [2] | Relative binding activity, DR1 [3] | Total (number of the 12 predominant HLA II molecules bound) [4] | Relative binding activity, DRB4 [5] | Relative binding activity, DR13 [6] | Relative binding activity, DR3 [7] | Relative binding activity, DR7 [8] | Relative binding activity, DRB3 [9] | Relative binding activity, DP401 [10] | Relative binding activity, DR15 [11] | Relative binding activity, DP402 [12] | Relative binding activity, DR11 [13]
1 | A E W A W G P C T P S S K D C (AEWAWGPCTPSSKDC) [MDK 38-52] | >2 100 | 1 859 | 1 305 | 0 | >28 868 | >2 537 | >419 | >2 479 | >485 | >879 | >529 | – | –
2 | C G V G F R E G T C G A Q T Q (CGVGFREGTCGAQTQ) [MDK 52-64] | >2 100 | – | – | 1 | >28 868 | >2 537 | >419 | >2 479 | >485 | >879 | >529 | >976 | –
3 | C K Y K F E N W G A C D G G T (CKYKFENWGACDGGT) [MDK 84-98] | – | – | 187 | 2 | >28 868 | >2 537 | >419 | >2 479 | >485 | – | 141 | – | >1 086
4 | C N W K K E F G A D C K Y K F (CNWKKEFGADCKYKF) [MDK 74-88] | – | >1 812 | – | 1 | >28 868 | >2 537 | – | >2 479 | – | >879 | >529 | >976 | 1 231
5 | C R V P C N W K K E F G A D C (CRVPCNWKKEFGADC) [MDK 70-84] | >2 100 | 1 562 | – | 2 | >28 868 | >2 537 | >419 | >2 479 | – | – | >529 | >976 | >1 086
6 | E N W G A C D G G T G T K V R (ENWGACDGGTGTKVR) [MDK 89-103] | >2 100 | >1 812 | 1 460 | 0 | >28 868 | >2 537 | >419 | >2 479 | 2 333 | >879 | >529 | >976 | >1 086
7 | G T K V R Q G T L K K A R Y N (GTKVRQGTLKKARYN) [MDK 99-113] | – | >1 812 | 3 000 | 1 | >28 868 | – | >419 | >2 479 | >485 | >879 | >529 | >976 | >1 086
8 | G T L K K A R Y N A Q C Q E T (GTLKKARYNAQCQET) [MDK 105-119] | >2 100 | – | – | 1 | >28 868 | >2 537 | >419 | >2 479 | >485 | >879 | 225 | >976 | 1 008
9 | K D K V K K G G P G S E C A E (KDKVKKGGPGSECAE) [MDK 25-39] | >2 100 | >1 812 | 1 251 | 0 | >28 868 | >2 537 | >419 | >2 479 | >485 | >879 | >529 | >976 | >1 086
10 | K E F G A D C K Y K F E N W G (KEFGADCKYKFENWG) [MDK 78-92] | – | – | 299 | – | >28 868 | >2 537 | – | >2 479 | – | – | 216 | – | –
11 | Q T Q R I R C R V P C N W K K (QTQRIRCRVPCNWKK) [MDK 64-78] | – | – | 246 | 1 | 1 155 | >2 537 | >419 | 2 066 | >485 | >879 | >529 | >976 | –
12 | T S A V A K K K D K V K K G G (TSAVAKKKDKVKKGG) [MDK 18-32] | >2 100 | >1 812 | >5 291 | 0 | >28 868 | 132 | >419 | >2 479 | >485 | >879 | >529 | >976 | >1 086
